Measured values from publication PMC12136220.

Biological target: human recombinant Hsp60 (human), P10809
Assay: cryo-EM structure; purified LAP mixed with Hsp60 at 2:1, incubated 4 h at 4°C; Titan Krios 300 kV with K3 detector, cryoSPARC; LAP-Hsp60 map refined in C1, Hsp60 alone in C7, LAP dimer in C2
Conditions: remark: other sources report otherwise

B1: human recombinant Hsp60, P10809 27-573 (natural protein)
chain: AKDVKFGADARALMLQGVDLLADAVAVTMGPKGRTVIIEQSWGSPKVTKDGVTVAKSIDLKDKYKNIGAKLVQDVANNTNEEAGDGTTTATVLARSIAKEGFEKISKGANPVEIRRGVMLAVDAVIAELKKQSKPVTTPEEIAQVATISANGDKEIGNIISDAMKKVGRKGVITVKDGKTLNDELEIIEGMKFDRGYISPYFINTSKGQKCEFQDAYVLLSEKKISSIQSIVPALEIANAHRKPLVIIAEDVDGEALSTLVLNRLKVGLQVVAVKAPGFGDNRKNQLKDMAIATGGAVFGEEGLTLNLEDVQPHDLGKVGEVIVTKDDAMLLKGKGDKAQIEKRIQEIIEQLDVTTSEYEKEKLNERLAKLSDGVAVLKVGGTSDVEVNEKKDRVTDALNATRAAVEEGIVLGGGCALLRCIPALDSLTPANEDQKIGIEIIKRTLKIPAMTIAKNAGVEGSLIVEKIMQSSSEVGYDAMAGDFVNMVEKGIIDPTKVVRTALLDAAGVASLLTTAEVVVTEIPKEEKDPGMGAMGGMGGGMGGGMF
stoichiometry N: 7
